In the Human Domainome abundance scans (Beltran et al. 2025):

B1: PMS1 protein homolog 1, residues 572 to 637; numbered along this chain, P54277 (parent)
chain: KKPMSASALFVQDHRPQFLIENPKTSLEDATLQIEELWKTLSEEEKLKYEEKATKDLERYNSQMKR

Variants of: B1
Assay: abundance fitness (aPCA) (normalised: wild type 0, dead -1); higher = more abundant; growth selection in yeast, the domain comes from the species named
Settings: Homo sapiens

Abundance fitness: each site, then its substitutions
K46: L -0.685 | D -0.848 | N -1.37
A53: E -0.227 | L -0.432 | V -0.26 | C -0.211 | W -0.79 | M -0.387 | D -0.498 | Q -0.48 | F -0.212 | I -0.834 | G -0.52 | N -0.363 | T -0.345 | S -0.121 | P -0.377 | Y -0.22
K65: C -0.203 | Y -0.207 | H -0.373 | F -0.276 | M -0.237 | Q 0.02 | R -0.086 | I -0.25 | V -0.068 | D 0.084 | T -0.264 | P 0.009 | W -0.502 | L 0.029 | G -0.497 | E 0.073 | N -0.163 | A 0.014
T54: A 0.035 | W -0.346 | N -0.045 | E 0.096 | L -0.009 | C -0.164 | V -0.12 | G 0.07 | K 0.046 | Y -0.331 | I -0.186 | D -0.016 | S 0.015 | P -0.338
L47: C -0.149 | K -0.235 | A 0.058 | N 0.202 | F -0.085 | M 0.017 | H 0.032 | R -0.091 | V 0.055 | E -0.184 | W -0.141 | S -0.039 | T 0.005 | P -0.975 | D -0.157
K48: W -0.187 | T -0.205 | F -0.121 | I -0.309 | Q -0.178 | S -0.135 | G -0.28 | Y -0.078 | P -0.09 | V -0.008 | A -0.095 | C 0.041 | E -0.202 | M -0.115 | L -0.081 | N -0.375 | H -0.426 | R -0.127
R59: L 0.001 | V -0.021 | K -0.171 | D 0.17 | E 0.05 | F -0.079 | H -0.085 | N -0.169 | M -0.046 | A 0.05 | T -0.063 | C -0.121 | I 0.088 | S -0.017 | W -0.126 | Q 0.087
K55: W -0.16 | A 0.059 | S -0.067 | T -0.058 | V -0.016 | M -0.053 | P -0.339 | N -0.103 | G -0.137 | I -0.001 | R -0.076 | D -0.045 | C -0.086 | L -0.065
Y60: F 0.063 | V -0.083 | G -0.046 | C -0.002 | S 0.04 | T -0.039 | M -0.339 | E -0.103 | W -0.117 | D 0.026 | A -0.178 | I -0.315 | R -0.07 | L -0.186 | Q -0.092 | K -0.075 | N 0.022 | P -0.109 | H -0.075
D56: W -0.258 | L -0.142 | G -0.144 | N -0.283 | S -0.035 | A -0.049 | E 0.104 | V -0.348 | C -0.163 | Q -0.162 | I -0.306 | P -0.423 | R -0.128 | T -0.145 | F -0.244 | K -0.353 | H -0.172 | M -0.231
N61: R -0.15 | W -0.489 | M -0.128 | Q -0.098 | S -0.092 | G -0.201 | T -0.029 | C -0.521 | L -0.333 | D -0.136 | P -0.197 | E 0.047 | K 0.007 | A -0.15 | F -0.515 | I -0.464
